Changes are numbered by the printed parent chain.
B1: Nb41 (CA14136) (VHH)
VHH: QVQLVESGGGLVQAGGSLRLSCEASVRTFSFYSMGWFRQAPGKEREFVAAIRWTAGSTSYADIVKGRFTISRDNGKNTVVLQMNSLEPEDTGVYYCAAQRGYLVEAASREYDYWGQGTQVTVSS
B2: Nb36: LRRK2-specific Nanobody, SEQ ID NO: 7 (protein)
VHH: MAQVQLVESGGGLVQPGGSLRLSCAASGSIRSITTSAWFRQPPGKQRELVAGISSGTSTNYADSVKGRFTISRDNAKNTVYLQMNSLKPEDTAVYYCHVWISGTWYSGQGTQVTVSS
modifications: Nanobody CA14130
B3: Nb38: LRRK2-specific Nanobody, SEQ ID NO: 8 (protein)
VHH: B2 VHH with T34A, F39Y, S58T, V99A, Y106I
modifications: Nanobody CA14133
B4: Nb10 (CA13599) (VHH)
VHH: QVQLVESGGGLVQPGGSLRLSCAASGSIFSIYAMGWYRQAPGKQRELVAAITSGGDTNYADSVKGRFTISRDNAKNTVYLQMNSLKPEDTAVYYCNADHTPAGTFQTFDYWGQGTQVTVSS
B5: Nb13 (CA13602) (VHH)
VHH: QVQLVESGGGLVQPGGSLRLSCAASGSGFSIYAMGWARQAPGRQRELVAAITSGGSTNYADSVKGRFTISRDNAKNTVYLQMNSLKPEDTAVYYCNADITVVAGSTYDYWGQGTQVTVSS
B6: Nb28 (CA13617) (VHH)
VHH: QVQLVESGGGLVQAGGSLRLSCAASGIIFHWYDMDWYRQAPGKQRELVATITTGGRADYADFVKGRFSISRDNAKTTVYLQMNSLKPEDTAVYYCSFQDHVLRRWGQGTQVTVSS

Key:
[1] = molecular target: T1, LRRK2 Roc domain construct (human, UniProt Q5S007 1329-1520); test: ELISA, antigen coated on the plate, purified Nb detected via its EPEA tag
T1 construct: not shown: N-terminal His6-tag of pET-28a
T1 sequence: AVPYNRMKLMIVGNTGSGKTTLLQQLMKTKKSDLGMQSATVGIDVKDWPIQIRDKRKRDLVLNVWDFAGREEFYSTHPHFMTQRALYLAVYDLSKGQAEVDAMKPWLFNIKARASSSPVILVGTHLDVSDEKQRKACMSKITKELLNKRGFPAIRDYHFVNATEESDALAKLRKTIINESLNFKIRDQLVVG
Excerpt: (§1) We recombinantly expressed and purified the RocCOR, Roc, COR-B and kinase-WD40 (K-WD40) domain constructs of LRRK2 (FIG. 7). Subsequently, we performed an ELISA in which all these domain constructs were coated in parallel next to each other in the same ELISA plate, and where we subsequently detected binding of the 42 purified Nbs. […] To enrich in Nbs directed against the Roc domain we specifically included a selection step with either Roc-GTPγS or Roc-GDP.

[2] = molecular target: T2, LRRK2 COR-B construct (C-terminal part of the COR domain), His6-MBP tagged (human, UniProt Q5S007 1672-1840); test: as above
T2 construct: also called (MBP-)COR-B; not shown: N-terminal His6-MBP-tag of pDEST-566
Excerpt: as §1

[3] = molecular target: T3, LRRK2 RocCOR domain construct (human, UniProt Q5S007 1334-1840); test: as above
T3 construct: A second construct (residues 1293-1840, N-terminal His6-MBP) was used in certain screening experiments; not shown: N-terminal Twin-Strep-tag; C-terminal His10-tag
T3 sequence: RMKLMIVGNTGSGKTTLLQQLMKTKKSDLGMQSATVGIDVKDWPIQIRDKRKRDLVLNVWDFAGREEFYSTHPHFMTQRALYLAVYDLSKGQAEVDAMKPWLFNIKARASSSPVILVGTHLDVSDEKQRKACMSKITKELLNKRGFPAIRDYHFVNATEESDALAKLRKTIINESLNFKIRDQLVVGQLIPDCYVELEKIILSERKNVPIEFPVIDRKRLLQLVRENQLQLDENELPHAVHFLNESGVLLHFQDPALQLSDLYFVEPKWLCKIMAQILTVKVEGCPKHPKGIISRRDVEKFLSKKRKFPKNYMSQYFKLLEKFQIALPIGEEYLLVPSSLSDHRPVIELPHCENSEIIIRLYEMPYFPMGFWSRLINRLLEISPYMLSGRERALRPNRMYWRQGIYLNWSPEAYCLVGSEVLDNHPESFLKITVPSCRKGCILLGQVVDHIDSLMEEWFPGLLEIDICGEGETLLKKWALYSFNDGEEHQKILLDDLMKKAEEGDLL
Excerpt: as §1

[4] = molecular target: T4, LRRK2(G2019S) (Homo sapiens, UniProt Q5S007, G2019S/M2397T/R50H); test: In cellulo phospho-Rab / LRRK2 autophosphorylation assay in HEK293T cells; assay type: cell-based; set-up: key to Functional Group (see FIG. 2d): Group 1: group 1: Nbs that inhibit both LRRK2 autophosphorylation and Rab10 phosphorylation in cells; Group 2: group 2: Nbs that inhibit only Rab10 phosphorylation; Group 3: group 3: Nbs that activate LRRK2 kinase activity; Group 4: group 4: Nbs that have no consistent/clear effect on LRRK2 kinase activity; conditions: for LRRK2 autophosphorylation at position S1292 / influence on LRRK2 kinase activity compared to the controls / Rab10 phosphorylation at position T72: HEK 293T cells co-expressing LRRK2(G2019S), Rab29 and Nb-GFP; for influence on LRRK2 kinase activity compared to the controls: Western blot; for Functional Group (see FIG. 2d): classification by effect on in cellulo LRRK2(G2019S) kinase activity; for Rab10 phosphorylation at position T72: endogenous Rab10
T4 construct: SF tag (FLAG + Twin-Strep); expressed in transfected cells; host or cells: HEK 293T
T4 sequence (Q5S007 whole entry R50H/G2019S/M2397T): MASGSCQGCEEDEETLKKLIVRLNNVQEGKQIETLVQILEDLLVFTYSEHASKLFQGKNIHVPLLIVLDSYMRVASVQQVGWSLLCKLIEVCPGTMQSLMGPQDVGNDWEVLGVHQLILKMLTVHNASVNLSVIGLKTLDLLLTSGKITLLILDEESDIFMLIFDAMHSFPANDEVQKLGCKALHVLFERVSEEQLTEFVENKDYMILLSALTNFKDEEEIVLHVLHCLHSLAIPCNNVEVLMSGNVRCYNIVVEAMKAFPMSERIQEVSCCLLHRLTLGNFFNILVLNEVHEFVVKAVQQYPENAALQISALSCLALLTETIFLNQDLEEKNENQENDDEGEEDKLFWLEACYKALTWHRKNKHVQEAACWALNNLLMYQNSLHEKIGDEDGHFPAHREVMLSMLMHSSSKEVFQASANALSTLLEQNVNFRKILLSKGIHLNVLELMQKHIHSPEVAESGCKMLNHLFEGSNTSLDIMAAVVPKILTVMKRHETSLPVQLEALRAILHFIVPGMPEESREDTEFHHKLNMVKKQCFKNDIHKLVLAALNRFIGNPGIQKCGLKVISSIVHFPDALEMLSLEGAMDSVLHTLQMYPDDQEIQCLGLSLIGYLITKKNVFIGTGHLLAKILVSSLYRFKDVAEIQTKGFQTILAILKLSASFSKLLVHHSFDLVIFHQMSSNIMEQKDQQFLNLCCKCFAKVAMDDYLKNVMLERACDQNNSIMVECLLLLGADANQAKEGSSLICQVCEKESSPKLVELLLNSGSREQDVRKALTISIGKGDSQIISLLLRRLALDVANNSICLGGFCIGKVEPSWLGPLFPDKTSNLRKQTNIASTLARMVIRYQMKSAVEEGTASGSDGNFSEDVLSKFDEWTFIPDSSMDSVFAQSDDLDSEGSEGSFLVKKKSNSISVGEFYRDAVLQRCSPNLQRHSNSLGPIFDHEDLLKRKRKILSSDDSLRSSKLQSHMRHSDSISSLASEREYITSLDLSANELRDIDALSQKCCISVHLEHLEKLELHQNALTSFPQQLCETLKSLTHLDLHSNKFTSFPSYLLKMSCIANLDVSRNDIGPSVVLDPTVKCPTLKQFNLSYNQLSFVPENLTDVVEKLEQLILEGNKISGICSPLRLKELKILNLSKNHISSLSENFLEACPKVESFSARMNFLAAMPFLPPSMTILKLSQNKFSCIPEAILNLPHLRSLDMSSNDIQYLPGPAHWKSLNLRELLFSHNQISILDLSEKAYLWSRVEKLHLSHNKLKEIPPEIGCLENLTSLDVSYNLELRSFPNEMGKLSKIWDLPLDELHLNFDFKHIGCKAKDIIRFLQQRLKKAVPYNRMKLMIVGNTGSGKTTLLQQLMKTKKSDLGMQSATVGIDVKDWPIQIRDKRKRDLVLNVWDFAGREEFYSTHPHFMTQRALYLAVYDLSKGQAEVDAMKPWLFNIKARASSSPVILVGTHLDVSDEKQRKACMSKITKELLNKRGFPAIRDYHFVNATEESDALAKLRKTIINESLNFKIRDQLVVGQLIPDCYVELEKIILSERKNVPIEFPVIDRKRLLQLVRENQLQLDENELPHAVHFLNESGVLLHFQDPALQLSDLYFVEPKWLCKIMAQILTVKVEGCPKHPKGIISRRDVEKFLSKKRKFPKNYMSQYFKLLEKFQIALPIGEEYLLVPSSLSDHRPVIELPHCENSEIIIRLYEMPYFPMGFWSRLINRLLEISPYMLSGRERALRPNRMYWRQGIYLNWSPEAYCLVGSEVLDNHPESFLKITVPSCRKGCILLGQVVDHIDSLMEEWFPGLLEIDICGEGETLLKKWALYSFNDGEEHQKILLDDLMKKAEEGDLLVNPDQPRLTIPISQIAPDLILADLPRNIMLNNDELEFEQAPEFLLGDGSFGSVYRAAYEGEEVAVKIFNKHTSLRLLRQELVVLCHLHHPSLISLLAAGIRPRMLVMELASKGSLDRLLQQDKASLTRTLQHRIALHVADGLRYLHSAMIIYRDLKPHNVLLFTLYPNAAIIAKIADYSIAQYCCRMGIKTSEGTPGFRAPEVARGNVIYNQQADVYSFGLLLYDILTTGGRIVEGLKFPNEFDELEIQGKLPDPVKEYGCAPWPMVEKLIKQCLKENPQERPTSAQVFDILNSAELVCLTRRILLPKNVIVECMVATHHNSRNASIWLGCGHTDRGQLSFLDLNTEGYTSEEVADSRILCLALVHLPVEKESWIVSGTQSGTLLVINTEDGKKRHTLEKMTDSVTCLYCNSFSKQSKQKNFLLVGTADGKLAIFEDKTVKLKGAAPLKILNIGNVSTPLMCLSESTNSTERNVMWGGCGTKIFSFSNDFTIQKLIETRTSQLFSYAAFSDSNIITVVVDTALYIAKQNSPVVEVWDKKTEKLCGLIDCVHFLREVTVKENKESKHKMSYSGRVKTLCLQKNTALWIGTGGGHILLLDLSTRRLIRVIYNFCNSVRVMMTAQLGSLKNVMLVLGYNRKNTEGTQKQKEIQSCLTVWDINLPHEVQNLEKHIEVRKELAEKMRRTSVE
Procedure: (FIGS. 2A-2C) LRRK2(G2019S) and its effector Rab29 were overexpressed together with GFP-fused Nbs (“Fluobody”) in HEK293T cells. A negative control, where no Nb is overexpressed (“No Nb”) is also included. […] In rows labeled “pLRRK2”, LRRK2 pS1292 levels are determined by Western Blot using a site-specific anti-pLRRK2(pS1292) antibody (Abcam, ab203181) (shown at different times of development). In the rows labeled “pRAB10”, endogenous pT72-Rab10 levels are determined by Western Blot using the MJFF/Abcam antibody MJF-R21 (Abcam, ab230261) (shown at different times of development). The three lower rows contain controls of LRRK2 (rat anti-LRRK2, 24D8), Fluobody (rat anti-GFP) and Rab10 (rabbit anti-Rab10) expression levels. (FIG. 2D) Based on the results of panels (FIGS. 2A-2C) the Nbs can be divided into 4 functional groups, with group 1: Nbs that inhibit both LRRK2 autophosphorylation and Rab10 phosphorylation in cells; group 2: Nbs that inhibit only Rab10 phosphorylation; group 3: Nbs that activate LRRK2 kinase activity; group 4: Nbs that have no consistent/clear effect on LRRK2 kinase activity.
To assess the influence of the Nbs on LRRK2 kinase activity we monitored two physiologically and disease relevant activities of LRRK2: phosphorylation of the endogenous substrate Rab10 at position T72 and LRRK2 autophosphorylation at position S1292 [25-30]. […] In our cellular assay we thus co-expressed LRRK2(G2019S), Rab29 and the different Nb-GFP fusions in HEK 293T cells (FIG. 2a-c).
HEK 293T cells were cultured in DMEM (supplemented with 10% Fetal Bovine Serum, […] L-Glutamine and 0.5% Pen/Strep). For the assay, the cells were seeded onto six-well plates and transfected at a confluency of 50-70% with the individual Nb-GFP expression constructs, SF-tagged LRRK2(G2019S) and FLAG-HA Rab29 using a self-made polyethylenimine (PEI)-based transfection reagent. After 48 hrs cells were lysed in lysis buffer [30 mM Tris-HCL (pH7.4), 150 mM NaCl, 0.5% Nonident-P40, complete protease inhibitor cocktail, phosphatase inhibitor cocktail II & III (all Sigma)]. Lysates were cleared by centrifugation at 10,000×g and adjusted to a protein concentration of 1 μg/μl in 1× Laemmli Buffer. Samples were subsequently subjected to SDS PAGE and Western Blot analysis to determine LRRK2 pS1292 and Rab10 T72 phosphorylation levels, as described below. Total LRRK2 and Rab10 levels were determined as a reference.
For western blot analysis, protein samples were separated by SDS-PAGE using NuPAGE 10% Bis-Tris gels (Invitrogen) and transferred onto PVDF membranes (Thermo Fisher). To allow simultaneous probing for LRRK2 on the one hand and Rab and the Nb-GFP fusions on the other hand, membranes were cut horizontally at the 140 kDa MW marker band. After blocking non-specific binding sites with 5% non-fat dry milk in TBST (1 h, RT) (25 mM Tris, pH 7.4, 150 mM NaCl, 0.1% Tween-20), membranes were incubated overnight at 4° C. with primary antibodies at dilutions specified below. Phospho-specific antibodies were diluted in TBST/5% BSA (Roth GmbH). Non-phospho-specific antibodies were diluted in TBST/5% non-fat dry milk powder (BioRad). Phospho-Rab10 levels were determined by the site-specific rabbit monoclonal antibody anti-pRAB10([…]) (Abcam, ab230261) and LRRK2 autophosphorylation was determined by the site-specific rabbit monoclonal antibody anti-pLRRK2(pS1292) (Abcam, ab203181), both at a dilution of 1:2,000. Total LRRK2 levels were determined by the in-house rat monoclonal antibody anti-pan-LRRK2 (clone 24D8; 1:10,000). Total Rab10 levels were determined by the rabbit monoclonal antibody anti-RAB10/ERP13424 (Abcam, ab181367) at a dilution of 1:5,000. Nb-GFP fusion proteins were detected using the rat monoclonal antibody anti-GFP (clone 3H9, ChromoTec) at a dilution of 1:2,000. For detection, goat anti-rat IgG or anti-rabbit IgG HRP-coupled secondary antibodies (Jackson ImmunoResearch) were used at a dilution of 1:15,000 in TBST/5% non-fat dry milk powder. […]

[5] = molecular target: T5, endogenous LRRK2 (Mus musculus, UniProt Q5S006); test: Colocalization of GFP-Nbs with endogenous LRRK2 on zymosan-containing phagosomes in RAW264.7 cells; assay type: cell-based; conditions: RAW264.7 cells transfected with GFP-Nbs, zymosan 30 mins, fixed cells
T5 construct: endogenous in cells; host or cells: RAW264.7
T5 sequence (Q5S006 whole entry): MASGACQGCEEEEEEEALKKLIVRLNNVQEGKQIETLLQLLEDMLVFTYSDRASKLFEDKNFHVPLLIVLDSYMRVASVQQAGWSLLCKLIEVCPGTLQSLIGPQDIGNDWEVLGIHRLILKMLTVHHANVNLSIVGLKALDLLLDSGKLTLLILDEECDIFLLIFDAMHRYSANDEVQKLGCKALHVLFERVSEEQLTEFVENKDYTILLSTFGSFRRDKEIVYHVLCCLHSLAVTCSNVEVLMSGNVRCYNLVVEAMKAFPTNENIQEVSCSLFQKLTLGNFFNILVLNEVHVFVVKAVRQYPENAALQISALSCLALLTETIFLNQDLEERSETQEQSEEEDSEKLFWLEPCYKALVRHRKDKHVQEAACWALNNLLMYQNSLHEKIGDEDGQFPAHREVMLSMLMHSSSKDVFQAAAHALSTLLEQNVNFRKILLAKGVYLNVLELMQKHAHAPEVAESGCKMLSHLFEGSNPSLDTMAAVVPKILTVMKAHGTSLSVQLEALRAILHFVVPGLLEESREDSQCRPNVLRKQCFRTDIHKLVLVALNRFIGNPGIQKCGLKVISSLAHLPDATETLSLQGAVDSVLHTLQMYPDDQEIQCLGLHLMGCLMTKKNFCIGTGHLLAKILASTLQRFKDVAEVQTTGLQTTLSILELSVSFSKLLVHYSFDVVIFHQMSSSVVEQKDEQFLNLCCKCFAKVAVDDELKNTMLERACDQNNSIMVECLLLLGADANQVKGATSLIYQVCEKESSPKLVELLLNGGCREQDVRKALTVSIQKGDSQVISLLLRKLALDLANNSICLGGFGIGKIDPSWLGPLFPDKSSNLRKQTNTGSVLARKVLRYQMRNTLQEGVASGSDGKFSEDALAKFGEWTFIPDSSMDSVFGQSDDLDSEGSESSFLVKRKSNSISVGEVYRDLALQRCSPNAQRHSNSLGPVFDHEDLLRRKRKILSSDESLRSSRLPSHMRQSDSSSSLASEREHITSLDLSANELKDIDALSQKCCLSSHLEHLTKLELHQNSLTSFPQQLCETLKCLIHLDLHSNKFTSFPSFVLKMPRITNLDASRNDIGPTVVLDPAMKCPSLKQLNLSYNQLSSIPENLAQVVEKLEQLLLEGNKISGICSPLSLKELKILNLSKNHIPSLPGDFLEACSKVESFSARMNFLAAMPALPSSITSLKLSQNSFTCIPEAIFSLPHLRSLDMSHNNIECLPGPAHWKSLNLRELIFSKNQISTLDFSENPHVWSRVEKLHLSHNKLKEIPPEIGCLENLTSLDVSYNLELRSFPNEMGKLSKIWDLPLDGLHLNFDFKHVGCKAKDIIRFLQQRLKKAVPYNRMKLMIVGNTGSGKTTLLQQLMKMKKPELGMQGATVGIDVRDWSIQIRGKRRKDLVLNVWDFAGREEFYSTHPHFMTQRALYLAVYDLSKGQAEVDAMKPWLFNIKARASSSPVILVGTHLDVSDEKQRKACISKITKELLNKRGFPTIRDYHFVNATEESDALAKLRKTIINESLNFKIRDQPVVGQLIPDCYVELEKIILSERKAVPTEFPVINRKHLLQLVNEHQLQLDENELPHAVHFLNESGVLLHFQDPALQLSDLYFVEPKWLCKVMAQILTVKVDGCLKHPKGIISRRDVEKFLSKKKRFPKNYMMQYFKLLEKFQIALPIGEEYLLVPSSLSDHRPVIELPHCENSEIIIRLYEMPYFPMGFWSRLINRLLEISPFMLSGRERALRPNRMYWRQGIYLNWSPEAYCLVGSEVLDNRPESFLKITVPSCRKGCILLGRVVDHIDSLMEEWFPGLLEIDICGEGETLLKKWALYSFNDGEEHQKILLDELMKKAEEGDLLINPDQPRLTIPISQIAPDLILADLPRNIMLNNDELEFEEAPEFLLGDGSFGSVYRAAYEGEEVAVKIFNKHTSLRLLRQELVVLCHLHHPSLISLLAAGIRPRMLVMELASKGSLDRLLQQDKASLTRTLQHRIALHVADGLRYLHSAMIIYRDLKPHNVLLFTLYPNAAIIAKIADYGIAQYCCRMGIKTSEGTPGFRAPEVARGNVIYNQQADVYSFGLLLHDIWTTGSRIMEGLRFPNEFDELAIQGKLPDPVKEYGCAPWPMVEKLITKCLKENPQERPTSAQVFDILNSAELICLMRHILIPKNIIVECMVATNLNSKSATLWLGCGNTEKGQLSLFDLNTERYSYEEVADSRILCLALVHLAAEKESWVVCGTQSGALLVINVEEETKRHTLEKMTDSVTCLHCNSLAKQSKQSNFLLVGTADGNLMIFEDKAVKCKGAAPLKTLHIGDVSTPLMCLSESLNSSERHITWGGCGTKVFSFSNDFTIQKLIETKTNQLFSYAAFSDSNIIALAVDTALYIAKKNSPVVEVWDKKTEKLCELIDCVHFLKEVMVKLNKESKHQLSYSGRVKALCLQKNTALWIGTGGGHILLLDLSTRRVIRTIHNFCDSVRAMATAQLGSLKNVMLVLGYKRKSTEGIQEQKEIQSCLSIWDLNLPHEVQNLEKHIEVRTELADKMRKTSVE
Procedure: RAW264.7 cells were transfected with GFP-fused Nbs and treated with Zymosan for 30 mins. Recruitment of LRRK2 and Nbs to the phagosomes was analyzed by immunofluorescence. FIG. 16A, images for Nb38, Nb22, Nb23, Nb40, No Nb, or Irrelevant (IRR) Nb treatments; FIG. 16B, images for Nb36, Nb42, Nb17, Nb39, Nb1, and Nb6 treatments. Scale bar=10 μm.
To test whether Nbs can trace and visualize endogenous LRRK2 in fixed cells, we generated green fluorescent protein (GFP)-Nb fusions (fluobodies) as described before. Recently, it was shown that LRRK2 is recruited to phagosomes upon induction of phagocytosis in immune cells. Therefore, RAW264.7 cells were transfected with these fluobodies and treated with killed yeast bioparticles “zymosan” to induce phagocytosis.
RAW264.7 cells (ATCC® SC-6003™) were transfected with peGFP-Nb constructs using JetOPTIMUS (Polyplus transfection) for 24 hrs and then stimulated with Zymosan particles (Sigma Aldrich) for 30 mins ([…]). Immunostaining for LRRK2 was performed as reported before. Briefly, cells fixed with 4% (w/v) paraformaldehyde for 30 min, followed by treatment with 100% EtOH at −20° C. Sampled were permeabilized with PBS/0.5% Triton X-100 and blocked with 3% BSA. Primary antibodies (rabbit anti-LRRK2, c41-2, Abcam and mouse anti-GFP, G6539, Sigma Aldrich) were diluted in PBS containing 3% BSA and 0.5% Triton X-100 and incubated overnight at 4° C. After three 5-min washes with PBS, secondary fluorescently labeled antibodies (anti-rabbit-Alexa fluor 568 and anti-mouse-Alexa fluor 488, Invitrogen) were added in a similar manner to primary antibodies and incubated for 1 hour at room temperature. Cells were washed twice with 1×PBS and mounted with Fluroshield antifade reagent with DAPI (SigmaAldrich). Images were acquired on Zeiss LSM800 confocal laser scanning microscope. Image analysis of z-scan was done using the Zeiss microscope software ZEN.

Molecule	binding result [1]	binding result [2]	binding result [3]	LRRK2 autophosphorylation at position S1292 [4]	influence on LRRK2 kinase activity compared to the controls [4]	Functional Group (see FIG. 2d) [4]	Rab10 phosphorylation at position T72 [4]	colocalization with endogenous LRRK2 on phagosomes [5]
B1	no binding (tested: not given)	no binding (tested: not given)	no binding (tested: not given)	–	–	–	–	–
B2	–	–	–	inhibiting S1292 phosphorylation at a lesser extent	strongly decreased LRRK2 autophosphorylation and/or Rab10 phosphorylation	Group 2	inhibit Rab10 phosphorylation	did not colocalize with endogenous LRRK2
B3	–	–	–	inhibiting S1292 phosphorylation at a lesser extent	strongly decreased LRRK2 autophosphorylation and/or Rab10 phosphorylation	Group 2	inhibit Rab10 phosphorylation	clearly colocalized with LRRK2 on zymosan-containing phagosomes
B4	no binding (tested: not given)	no binding (tested: not given)	no binding (tested: not given)	–	–	–	–	–
B5	no binding (tested: not given)	no binding (tested: not given)	no binding (tested: not given)	–	–	–	–	–
B6	no binding (tested: not given)	no binding (tested: not given)	no binding (tested: not given)	–	–	–	–	–
